Test results: the supplement of paper PMC7125110
± gives the standard error. For part of these data: This sample holds only a part of the variants without activity.

B1: glmS ribozyme (parent)
chain: AUAAAAGCGCCAGAACUACAGAAAUGUAGUUGACGAGGAGGAGGUUUAUCGAAUUUUCGGCGGAUGCCUCCAAA

What was measured:
Settings in all cases: with glucosamine-6-phosphate
glucosamine-6-phosphate [1] = variants of: B1; assay: kcat; higher = faster cleavage; RNA array
Method in brief: (§1)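 Tracking of barcoded ribozyme variants used a hybridised Cy3 probe at 37 °C, after in situ transcription by E. coli RNA polymerase on sequenced MiSeq chips. The flowed solution held 40 μM to 10 mM glucosamine-6-phosphate in HEPES/KCl/Mg(OAc)2 buffer, and imaging ran over ~14 h. kobs was taken from exponential decay fits of normalised per-tile medians, and kcat and KM from weighted Michaelis–Menten fits.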

glucosamine-6-phosphate [2] = variants of: B1; assay: KM; higher = weaker cofactor use; RNA array
Method in brief: as §1

glucosamine-6-phosphate [3] = variants of: B1; assay: self-cleavage kobs at 40 uM GlcN6P; higher = faster cleavage; RNA array
Method in brief: as §1

glucosamine-6-phosphate [4] = variants of: B1; assay: self-cleavage kobs at 160 uM GlcN6P; higher = faster cleavage; RNA array
Method in brief: as §1

glucosamine-6-phosphate [5] = variants of: B1; assay: self-cleavage kobs at 640 uM GlcN6P; higher = faster cleavage; RNA array
Method in brief: as §1

glucosamine-6-phosphate [6] = variants of: B1; assay: self-cleavage kobs at 2500 uM GlcN6P; higher = faster cleavage; RNA array
Method in brief: as §1

glucosamine-6-phosphate [7] = variants of: B1; assay: self-cleavage kobs at 10000 uM GlcN6P; higher = faster cleavage; RNA array
Method in brief: as §1

Row | Variant | kcat (glucosamine-6-phosphate [1]) [s⁻¹] | KM (glucosamine-6-phosphate [2]) [µM] | self-cleavage kobs at 40 uM GlcN6P (glucosamine-6-phosphate [3]) [s⁻¹] | self-cleavage kobs at 160 uM GlcN6P (glucosamine-6-phosphate [4]) [s⁻¹] | self-cleavage kobs at 640 uM GlcN6P (glucosamine-6-phosphate [5]) [s⁻¹] | self-cleavage kobs at 2500 uM GlcN6P (glucosamine-6-phosphate [6]) [s⁻¹] | self-cleavage kobs at 10000 uM GlcN6P (glucosamine-6-phosphate [7]) [s⁻¹]
1 | AUAAAAGCGCCAGUACUACAGAAAUGUAGUUGACGAGGAGGAGGUUUAUCGAAUUUUCGGCGGAUGCCUCGAAA | 0.000432 ± 8.9e-05 | 1620 ± 630 | 2.7e-05 ± 9.2e-06 | 5.71e-05 ± 1.1e-05 | 0.000111 ± 1.3e-05 | 0.000237 ± 3.2e-05 | 0.000402 ± 4.2e-05
2 | AUAAAAGCGCCAGACCUACAGAAAUGUAGUUGACGAGGAGGGGGUUUAUCGACUUUUCGGCGGAUGCCUCCAAA | 0.00239 ± 0.001 |  |  |  | 0.000469 ± 0.00012 | 0.000746 ± 0.00018 | 0.00192 ± 0.00042
3 | AUAAAAGCGCCAGACCUACAGAAAUGUAGUUGACGAGGAGGAGGUUUAUCGAAUAUUCGGCGGAUGCCUCCAAA | 0.00649 ± 0.0016 | 1920 ± 650 | 0.000161 ± 2.8e-05 | 0.000516 ± 8.7e-05 | 0.00128 ± 0.00023 | 0.00484 ± 0.00095 | 0.0054 ± 0.00095
4 | AUAAAAGCGCCAGAACUACAGAAAUGUAGUUGACGAGGAUGAGGGUUAUCGAAUUUUCGGCGGAUGCCUCCAAA | 0.0012 ± 0.00018 | 724 ± 190 | 7.67e-05 ± 2e-05 | 0.000202 ± 3.6e-05 | 0.000582 ± 8.9e-05 | 0.000779 ± 0.00017 | 0.00134 ± 0.00027
5 | AUAAAAGCGCCAGAACUACAGAAAUGUAGUUGACGAGGAGGAGGUUUAUUGAAUUUUCGGCGGAUGCCUCUAAA | 5.37e-05 ± 8.4e-06 |  |  |  |  | 4.54e-05 ± 9.2e-06 | 4.57e-05 ± 1e-05
6 | AUAAAAGCGCCAGAACUACAGAAAUGUAGUUGACGAGGAGGAGGUUUAUCGGAUUUUCGGCGGCUGCCUACAAA | 1.92e-05 ± 6.2e-06 |  |  |  |  |  | 
7 | AUAAAAGCGCCAGAACUACAGAAAUGUAGUAGACGAGGAGCAGGUUUAUCGAAUUUUCGGCGGAUGCCUCCAAA | 0.000118 ± 1.6e-05 | 501 ± 200 |  |  | 6.84e-05 ± 1.6e-05 | 9.73e-05 ± 2.2e-05 | 
8 | AUAAAAGCGCCAGAUCUACAGAAAUGUAGUUGACGAGGGGGAGGUUUAUCGAAUUUUCGGCGGAUGCCUCCAAA | 0.00892 ± 0.0027 | 1830 ± 730 | 0.000203 ± 3.1e-05 | 0.000706 ± 0.00028 | 0.0023 ± 0.00069 |  | 0.00943 ± 0.0017
